In this assay the test system is HPAFII (human pancreatic cancer xenograft model). Nature of the assay: In vivo antitumor efficacy, HPAFII xenograft model. As to conditions: 3 mg/kg i.v. QW × 3. Further details: species or system CB17 SCID mice.

The values that follow come from patent publication EP4796130A1, “ANTI-TISSUE FACTOR ANTIBODY-DRUG CONJUGATE COMPRISING CAMPTOTHECIN DERIVATIVE” (Celltrion, Inc., priority 2023, dated 2025).

Usually TGI stands for the reduction of tumour growth relative to the control group. In general, T/C refers to the ratio of treated to control.

B1: Isotype-MMAE: ADC in which anti-influenza A antibody (Navivumab, P23) is conjugated with MMAE (MC-vc-PAB-MMAE); DAR 4 (conjugate, chains of the INN, looked up)
VH: QVQLVQSGAEVKKPGASVKVSCKTSGYSFSTYGVSWVRQAPGQGPEWVGWISAYTGITDYAQKFQGRVTLTTDATTATAFLDLRSLRPDDTATYFCARDKVQGRVEVGSGGRHDYWGQGTLVIVSS
VL: EVVLTQSPGTLALPPGERATLSCRASHRVGSTYIAWYQQKSGQAPRRLIYGASNRATDIPDRFSGSGSGTDFTLTIRRLEPEDSAVYYCQQFSVSPWTFGQGTRVEIK
modifications: mc-vc-PAB-MMAE payload, DAR 4
Consider B1, for which the “Tumor Volume” value was 235 ± 17 mm^3 (day 0, mean ± SEM); 357 ± 38 mm^3 (day 4, mean ± SEM); 424 ± 46 mm^3 (day 7, mean ± SEM); 603 ± 79 mm^3 (day 11, mean ± SEM); 799 ± 98 mm^3 (day 14, mean ± SEM); 2,142 ± 164 mm^3 (day 28, mean ± SEM). The same molecule registered a T/Cweight (day 28 vs control group G1) of 90.45%. In addition, for the setting “day 28 vs control group G1”, the TGI was found to be 10.01%. The “Tumor Weights on Day 28” value (mean ± SEM) is recorded as 1.933 ± 0.177 g. This molecule also returned a T/C (tumor volume on day 28 vs control group G1) of 90.99%.
